Reference: PMC9528458 (Science signaling, 2022)
Like-named read-outs stand apart in the source and are kept apart here.

What was measured:
[1] = target: T1, mouse Fzd4 (residues 41-537), monomeric, in lipid nanodiscs (mouse, UniProt Q61088 41-537); test: BLI
T1 sequence (looked up): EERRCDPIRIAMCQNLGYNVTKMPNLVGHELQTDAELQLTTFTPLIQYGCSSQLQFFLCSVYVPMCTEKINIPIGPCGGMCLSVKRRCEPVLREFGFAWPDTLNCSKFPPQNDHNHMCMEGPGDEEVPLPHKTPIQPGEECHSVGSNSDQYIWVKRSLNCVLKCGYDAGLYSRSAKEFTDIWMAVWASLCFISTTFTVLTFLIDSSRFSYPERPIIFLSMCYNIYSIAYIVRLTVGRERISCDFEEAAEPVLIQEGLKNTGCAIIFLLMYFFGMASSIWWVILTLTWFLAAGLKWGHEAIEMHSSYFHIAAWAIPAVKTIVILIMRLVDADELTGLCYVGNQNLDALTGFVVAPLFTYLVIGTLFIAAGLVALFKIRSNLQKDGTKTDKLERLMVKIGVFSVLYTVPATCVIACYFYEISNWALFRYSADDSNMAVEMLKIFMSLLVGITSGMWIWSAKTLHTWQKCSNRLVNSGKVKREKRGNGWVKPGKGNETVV

[2] = target: T2, human FZD5 (residues 27-585), in lipid nanodiscs (human, UniProt Q13467 27-585); test: SEC
[3] = target: T1, mouse Fzd4 (residues 41-537), …; test: SEC
[4] = target: T1, mouse Fzd4 (residues 41-537), …; test: BLI; remark: listed apart in the source
[5] = target: T1, mouse Fzd4 (residues 41-537), …; test: BLI; remark: listed apart in the source
[6] = target: T1, mouse Fzd4 (residues 41-537), …; test: BLI; remark: listed apart in the source
[7] = target: T1, mouse Fzd4 (residues 41-537), …; test: BLI; remark: listed apart in the source
[8] = target: pre-formed xWnt8-FZD5 complex in nanodiscs (human | Xenopus laevis, UniProt Q13467 27-585; P28026 23-358); test: BLI
[9] = target: T2, human FZD5 (residues 27-585), in lipid …; test: BLI
[10] = target: human FZD7 (residues 33-574), in lipid nanodiscs (human, UniProt O75084 33-574); test: BLI
[11] = target: T1, mouse Fzd4 (residues 41-537), …; test: BLI; remark: listed apart in the source

T2 sequence (Q13467 27-585): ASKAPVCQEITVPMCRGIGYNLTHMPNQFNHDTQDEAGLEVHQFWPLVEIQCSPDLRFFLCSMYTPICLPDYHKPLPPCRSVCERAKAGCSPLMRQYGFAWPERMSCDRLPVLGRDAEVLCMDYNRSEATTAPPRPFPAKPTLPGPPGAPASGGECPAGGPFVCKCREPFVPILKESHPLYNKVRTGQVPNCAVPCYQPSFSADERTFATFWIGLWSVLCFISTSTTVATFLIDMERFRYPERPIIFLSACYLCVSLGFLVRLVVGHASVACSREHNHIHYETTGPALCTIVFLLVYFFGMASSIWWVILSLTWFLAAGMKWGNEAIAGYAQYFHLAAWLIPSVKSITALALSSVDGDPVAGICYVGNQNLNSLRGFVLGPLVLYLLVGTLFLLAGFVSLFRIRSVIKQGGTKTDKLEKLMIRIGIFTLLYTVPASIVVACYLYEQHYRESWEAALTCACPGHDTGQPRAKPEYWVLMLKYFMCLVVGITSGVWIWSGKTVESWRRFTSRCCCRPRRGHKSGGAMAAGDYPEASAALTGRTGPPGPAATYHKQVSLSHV
Chain of pre-formed xWnt8-FZD5 complex in nanodiscs (Q13467 27-585, one chain of several): as the sequence (Q13467 27-585) above

B1: human Norrin (ligand, UniProt Q00604 25-133, looked up)
chain: KTDSSFIMDSDPRRCMRHHYVDSISHPLYKCSSKMVLLARCEGHCSQASRSEPLVSFSTVLKQPFRSSCHCCRPQTSKLKALRLRCSGGMRLTATYRYILSCHCEECNS
**Q.** Does B1 bind [1]?
**A.** binds

B2: Xenopus laevis Wnt8 (ligand, UniProt P28026 23-358, looked up)
chain: AWSVNNFLMTGPKAYLTYSASVAVGAQNGIEECKYQFAWERWNCPESTLQLATHNGLRSATRETSFVHAISSAGVMYTLTRNCSMGDFDNCGCDDSRNGRIGGRGWVWGGCSDNAEFGERISKLFVDGLETGQDARALMNLHNNEAGRLAVKETMKRTCKCHGISGSCSIQTCWLQLAEFRDIGNHLKIKHDQALKLEMDKRKMRSGNSADNRGAIADAFSSVAGSELIFLEDSPDYCLKNISLGLQGTEGRECLQSGKNLSQWERRSCKRLCTDCGLRVEEKKTEIISSCNCKFHWCCTVKCEQCKQVVIKHFCARRERDSNMLNTKRKNRGHRR
**Q.** Does B2 bind [2]?
**A.** binds

**Q.** Does B2 bind [3]?
**A.** binds

B3: DEP domain of mouse Dvl2 (residues 416-510) (domain or fragment, UniProt Q60838 416-510, looked up)
chain: GLSVHMDMASVTKAMAAPESGLEVRDRMWLKITIPNAFLGSDVVDWLYHHVEGFPERREARKYASGLLKAGLIRHTVNKITFSEQCYYVFGDLSG
**Q.** What does the source list for B3?
**A.** Kd [4]: ~2000 nM; Kd [5]: > 10000 nM; Kd [6]: 1200 nM; Kd [7]: ~40 nM; binding result [8]: binds; binding result [9]: binds; binding result [10]: binds

B4: DEP domain of mouse Dvl2 bearing a G436P mutation (domain or fragment, UniProt Q60838 416-510, looked up)
chain: GLSVHMDMASVTKAMAAPESPLEVRDRMWLKITIPNAFLGSDVVDWLYHHVEGFPERREARKYASGLLKAGLIRHTVNKITFSEQCYYVFGDLSG
**Q.** Does B4 bind [11]?
**A.** binds
